The target of one data set is Thioflavin T (ThT). Nature of the data set: ThT binding assay (ThT fluorescence emission spectrum). The settings on record: read off a plot.
The target in data set [1] is human ZBP1-Zαβ (residues 1-166) (human) (UniProt Q9H171). Nature of the data set: SAXS; ZBP1-Zαβ at 5 mg/mL, 20 mM Tris-HCl pH 7.4, 100 mM NaCl.
For data set [2] the target is unchanged. Nature of the data set: dynamic light scattering; ZBP1-Zαβ at 5 mg/mL (high concentration), 20 mM Tris-HCl pH 7.4, 100 mM NaCl, room temperature.
Data set [3] deals with the molecule itself. Nature of the data set: negative-staining electron microscopy; purified proteins on carbon films, 0.2% uranyl acetate.
Data set [4] deals with the molecule itself. Nature of the data set: SEC; Superdex 200 10/300, 20 mM Tris-HCl, 1 M NaCl, pH 7.5; elution at the void position. On the technique in general: In gel filtration, larger molecules generally elute earlier.
The target in another data set is T1, mCherry-ZBP1-Zαβ (Homo sapiens, UniProt Q9H171 1-166).
T1 sequence: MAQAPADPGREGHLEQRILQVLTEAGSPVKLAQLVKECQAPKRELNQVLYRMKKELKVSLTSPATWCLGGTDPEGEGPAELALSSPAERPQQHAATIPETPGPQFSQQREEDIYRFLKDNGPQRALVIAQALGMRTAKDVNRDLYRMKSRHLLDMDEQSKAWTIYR
Description: in vitro co-condensation (microscopy); Z-RNA promotes condensates; EMSA: protein 0, 5, 10, 20 nM with 10 nM dsDNA, on ice 1 h, 6% polyacrylamide; protein and DNA stocks in 20 mM Tris-HCl pH 7.4, 100 mM NaCl. The conditions noted are these: protein: recombinant; tags: mCherry fusion; label: 5'-FAM. Background: Mobility shift assays separate free from complexed probe on a gel.

Changes are numbered by the printed parent chain.

Consider “ZBP1-RHIM1 (residues 168-224) (from UniProt Q9H171) I206A; Q207A; I208A; G209A”, for which the response in the data set with Thioflavin T (ThT) (parent: est. 1900) was 1200.
“ZBP1-RHIM 1 + 2 (residues 168-280) (from UniProt Q9H171) I206A; Q207A; I208A; G209A”: the response with Thioflavin T (ThT) (parent: est. 2300) worked out at 880.
Usually stoichiometry N stands for the number of molecules, sites or subunits per partner or assembly. As to “human ZBP1-Zαβ (residues 1-166) (from UniProt Q9H171 1-166) (domain or fragment)”, the stoichiometry N in data set [1] and in data set [2] was 2 throughout.

B1: ZBP1-RHIM1 AAAA (domain or fragment, human, UniProt Q9H171 168-224, looked up)
chain: EDSGRRAKSASIIYQHNPINMICQNGPNSWISIANSEAAAAAHGNIITRQTVSREDG
notes: also called 4 A mutant of ZBP1-RHIM 1; 4 A; source: E. coli BL21 Codonplus (DE3)-RIPL, purified (Ni-NTA, Superdex 200 10/300)
Regarding B1, in data set [3], the binding result is “binds”.

B2: ZBP1-RHIM1 (residues 168-224) (domain or fragment, human, UniProt Q9H171 168-224, looked up)
chain: B1 chain with A39I, A40Q, A41I, A42G
notes: the tag is inferred from the purification; source: E. coli BL21 Codonplus (DE3)-RIPL, purified (Ni-NTA, Superdex 200 10/300)
For B2, in data set [4], the binding result is “binds”.
As to ACGCGCGCGCGUUUUUGCGCGCGCGC (structured_RNA, 2'-O-methyl-8-methylguanosine (m8Gm), positions not given) [Z-RNA], the binding result with mCherry-ZBP1-Zαβ is given as “binds”.

B3: ZBP1-RHIM1 + 2 AAAA (domain or fragment, human, UniProt Q9H171 168-280, looked up)
chain: EDSGRRAKSASIIYQHNPINMICQNGPNSWISIANSEAAAAAHGNIITRQTVSREDGSAGPRHLPSMAPGDSSTWGTLVDPWGPQDIHMEQSILRRVQLGHSNEMRLHGVPSE
notes: also called 4 A mutant of RHIM 1 + 2; 4 A; source: E. coli BL21 Codonplus (DE3)-RIPL, purified (Ni-NTA, Superdex 200 10/300)
In the case of B3, the binding result in data set [3] is given as “binds”.

B4: ZBP1-RHIM 1 + 2 (residues 168-280) (domain or fragment, human, UniProt Q9H171 168-280, looked up)
chain: B3 chain with A39I, A40Q, A41I, A42G
notes: the tag is inferred from the purification; also called RHIM 1 + 2 high-oligomer seed; source: E. coli BL21 Codonplus (DE3)-RIPL, purified (Ni-NTA, Superdex 200 10/300)
B4: in data set [4], the binding result is on record as “binds”.

(Values after paper PMC11233663, “ZBP1 condensate formation synergizes Z-NAs recognition and signal transduction” (Cell Death & Disease, 2024).)
